Here are results for two molecules from paper PMC5270673, “Altered stoichiometry and nuclear delocalization of NonO and PSF promote cellular senescence” (Aging (Albany NY), 2016).

In data set [1] the target is T1, Splicing Factor Proline/Glutamine Rich, PSF/SFPQ (human (endogenous in BJ fibroblasts)), P23246.
T1 chain: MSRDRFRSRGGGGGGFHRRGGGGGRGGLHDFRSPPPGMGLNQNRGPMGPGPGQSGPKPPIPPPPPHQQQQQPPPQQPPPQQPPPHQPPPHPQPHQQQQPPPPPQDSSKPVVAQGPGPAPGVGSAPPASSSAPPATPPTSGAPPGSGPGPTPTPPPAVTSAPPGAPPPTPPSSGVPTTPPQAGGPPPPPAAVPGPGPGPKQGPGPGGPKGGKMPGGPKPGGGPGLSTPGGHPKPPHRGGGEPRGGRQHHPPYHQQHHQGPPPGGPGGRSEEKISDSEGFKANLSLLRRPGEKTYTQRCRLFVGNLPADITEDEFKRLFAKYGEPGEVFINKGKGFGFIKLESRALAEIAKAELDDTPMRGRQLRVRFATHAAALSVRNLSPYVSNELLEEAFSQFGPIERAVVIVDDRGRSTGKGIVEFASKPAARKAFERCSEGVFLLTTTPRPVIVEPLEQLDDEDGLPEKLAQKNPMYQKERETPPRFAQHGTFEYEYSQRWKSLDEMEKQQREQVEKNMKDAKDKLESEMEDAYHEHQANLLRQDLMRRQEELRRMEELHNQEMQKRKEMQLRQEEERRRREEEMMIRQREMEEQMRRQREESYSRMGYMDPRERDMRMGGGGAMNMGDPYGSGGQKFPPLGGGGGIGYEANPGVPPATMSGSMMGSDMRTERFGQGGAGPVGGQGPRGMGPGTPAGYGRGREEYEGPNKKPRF
The data set is described as follows: SEC; Superose 6 FPLC of nuclear and cytoplasmic extracts of BJ fibroblasts, untransfected or overexpressing NonO, day 8; 400 mM KCl, 20 mM HEPES pH 7.9, 1.0 mM MgCl2, 0.5 mM EGTA, 10% glycerol; fractions blotted with anti-NonO and anti-PSF; masses estimated from marker proteins. The settings on record: remark: other sources report otherwise.

Data set [2] concerns the molecule itself. Described as above.

B1: Splicing Factor Proline/Glutamine Rich, PSF/SFPQ, P23246 1-707 (natural protein)
chain: MSRDRFRSRGGGGGGFHRRGGGGGRGGLHDFRSPPPGMGLNQNRGPMGPGPGQSGPKPPIPPPPPHQQQQQPPPQQPPPQQPPPHQPPPHPQPHQQQQPPPPPQDSSKPVVAQGPGPAPGVGSAPPASSSAPPATPPTSGAPPGSGPGPTPTPPPAVTSAPPGAPPPTPPSSGVPTTPPQAGGPPPPPAAVPGPGPGPKQGPGPGGPKGGKMPGGPKPGGGPGLSTPGGHPKPPHRGGGEPRGGRQHHPPYHQQHHQGPPPGGPGGRSEEKISDSEGFKANLSLLRRPGEKTYTQRCRLFVGNLPADITEDEFKRLFAKYGEPGEVFINKGKGFGFIKLESRALAEIAKAELDDTPMRGRQLRVRFATHAAALSVRNLSPYVSNELLEEAFSQFGPIERAVVIVDDRGRSTGKGIVEFASKPAARKAFERCSEGVFLLTTTPRPVIVEPLEQLDDEDGLPEKLAQKNPMYQKERETPPRFAQHGTFEYEYSQRWKSLDEMEKQQREQVEKNMKDAKDKLESEMEDAYHEHQANLLRQDLMRRQEELRRMEELHNQEMQKRKEMQLRQEEERRRREEEMMIRQREMEEQMRRQREESYSRMGYMDPRERDMRMGGGGAMNMGDPYGSGGQKFPPLGGGGGIGYEANPGVPPATMSGSMMGSDMRTERFGQGGAGPVGGQGPRGMGPGTPAGYGRGREEYEGPNKKPRF
Turning to B1, the stoichiometry N in data set [1] was 2.

B2: NonO overexpressed in BJ fibroblasts (natural protein, UniProt Q99K48 1-473, looked up)
chain: MQSNKAFNLEKQNHTPRKHHQHHHQQHHQQQQQQQQQQPPPPIPANGQQASSQNEGLTIDLKNFRKPGEKTFTQRSRLFVGNLPPDITEEEMRKLFEKYGKAGEVFIHKDKGFGFIRLETRTLAEIAKVELDNMPLRGKQLRVRFACHSASLTVRNLPQYVSNELLEEAFSVFGQVERAVVIVDDRGRPSGKGIVEFSGKPAARKALDRCSEGSFLLTTFPRPVTVEPMDQLDDEEGLPEKLVIKNQQFHKEREQPPRFAQPGSFEYEYAMRWKALIEMEKQQQDQVDRNIKEAREKLEMEMEAARHEHQVMLMRQDLMRRQEELRRMEELHNQEVQKRKQLELRQEEERRRREEEMRRQQEEMMRRQQEGFKGTFPDAREQEIRMGQMAMGGAMGINNRGAMPPAPVPPGTPAPPGPATMMPDGTLGLTPPTTERFGQAATMEGIGAIGGTPPAFNRPAPGAEFAPNKRRRY
notes: NonO cDNA expressed from a transfected plasmid; Its NonO fragments end at residue 473; The tag is therefore unknown; also called NonO OE; full-length NonO; source: BJ human diploid fibroblasts, stably transfected, nuclear or cytoplasmic extract
Consider B2, for which, in data set [2], the “stoichiometry N” value is 2.

A word on the stoichiometry N: it is a count of units in the complex or per binding partner.
